Assay [1] concerns the target human Trop-2 (human) (UniProt P09758). Briefly: cell binding on NCI-N87 cells, maximum binding compared to murine RS7.
The target is the same in assay [2]. Briefly: cell binding on NCI-N87 cells, anti-mouse-HRP secondary, luminescence.
Assay [3] has the same target. Briefly: cell binding assay on Trop-2 expressing cells, cell line not named.

As usually defined, the Kd is the concentration at which binding is half-saturated. Low readings indicate a tighter complex, high ones a looser complex.

Sequence of human Trop-2 (human) (P09758 27-323): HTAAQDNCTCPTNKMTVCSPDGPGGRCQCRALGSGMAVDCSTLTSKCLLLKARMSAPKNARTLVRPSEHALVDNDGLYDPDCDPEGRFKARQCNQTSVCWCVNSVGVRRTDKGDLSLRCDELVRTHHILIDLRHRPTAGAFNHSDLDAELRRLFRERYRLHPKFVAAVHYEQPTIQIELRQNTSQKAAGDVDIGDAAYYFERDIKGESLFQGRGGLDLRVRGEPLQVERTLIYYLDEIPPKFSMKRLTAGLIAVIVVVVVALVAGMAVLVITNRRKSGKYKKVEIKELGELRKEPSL

“162-46.2 murine monoclonal antibody against human Trop-2” displayed a reduction of maximum binding relative to RS7 in assay [1] of 25%. This molecule showed a BMax (maximum binding) (relative luminescent units) in assay [2] of 8470.

Turning to “MAB650 murine monoclonal antibody against human Trop-2”, the reduction of maximum binding relative to RS7 in assay [1] stood at 50%. In assay [2], the BMax (maximum binding) (relative luminescent units) is 6020 and the Kd was determined as 0.49 nM.

Turning to hRS7-CL2A-SN-38 antibody-drug conjugate, the Kd in assay [3] stood at 1.2 nM.

B1: hRS7-CL2-SN-38 antibody-drug conjugate (antibody, INN chains, looked up, V domains shown)
VH: QVQLQQSGSELKKPGASVKVSCKASGYTFTNYGMNWVKQAPGQGLKWMGWINTYTGEPTYTDDFKGRFAFSLDTSVSTAYLQISSLKADDTAVYFCARGGFGSSYWYFDVWGQGSLVTVSS
VL: DIQLTQSPSSLSASVGDRVSITCKASQDVSIAVAWYQQKPGKAPKLLIYSASYRYTGVPDRFSGSGSGTDFTLTISSLQPEDFAVYYCQQHYITPLTFGAGTKVEIK
modifications: SN-38 via CL2 linker
In assay [3], B1 came in with a Kd of 1.2 nM.

Values taken from patent US20180271992A1.
